For the assay, the target named is Adnectin C-PAS#1(200). Description: SPR; Biacore X100, 25 °C, HBS-EP buffer pH 7.4, CM5 chip; His-tagged Adnectins captured on amine-coupled anti-His antibody (about 300 RU); rhVEGFR2 injected at 50-3.125 ug/ml; multi cycle kinetics, contact 180 s, dissociation 500 s. (Surface plasmon resonance follows binding to a sensor surface in real time, without labels.)

In general, Kd refers to a measure of binding affinity in units of concentration. A word on the koff: it is the first-order rate constant of dissociation. A low value points to a long-lived complex. As usually defined, the kon is a measure of how fast the partners come together. The low end stands for slow association, the high end for fast association. As for “rhVEGFR2 (Genescript) (from UniProt P35968 20-764) (receptor)”, the Kd was 159 pM, the koff stood at 2.48e-05 s⁻¹ and the kon was 156000 M⁻¹ s⁻¹.

(Values after paper PMC6393559.)
